Data on 30 sequences can be found in the supplement of paper PMC9170038.

The data set concerns MS2 coat protein. Briefly: apparent KD of MS2 coat protein; designed switch direction (-1 OFF switch, 1 ON switch): -1; higher = weaker reporter binding. The method in brief: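 Apparent KD, taken as the median over clusters for each design, was obtained by curve-fitting normalised cluster fluorescence. Designed RNA switches had been transcribed on Illumina chips by stalled E. coli RNA polymerase and titrated with SNAP-549-labelled MS2 coat protein, doubling from 0.7 or 1.5 nM to 3 µM.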

Where [1] appears, read: Eterna round: R95, input ligand: microRNA oligo, concentration not stated.
Where [2] appears, read: input ligand: microRNA oligo, concentration not stated.
[3] abbreviates: Eterna round: R95, input ligand: FMN 200 uM.
[4] abbreviates: Eterna round: R95, input ligand: none.

With “UAAUGUAUAUAGGAUAUCUAGCUGGAAACAGCUAGAGAAGGAUGUACAUGAGGAUCACCCAUGUAAAUCAGUGA [Ex6/14-B1] (Eterna round: R97, puzzle: Exclusion 6)”, the “apparent KD of MS2 coat protein” value by setting is: (input ligand: FMN 200 uM) 239 nM; (input ligand: none) 55.4 nM.

In the case of “UAAUUAAGUGUGAGGAUAUGCUGGUCCUUGGAUCAGCAGAAGGCACAUGAGGAUCACCCAUGUAAUUUAUUUAU [JL bmx4 3.10] (puzzle: Brourd's mod of Exclusion 4)”, the “apparent KD of MS2 coat protein” value under setting [1] was 78.5 nM.

With “UACAAGCUUUUAAGAUCCUACAUGAGGAUCACCCAUGUGCUCGUCUUGUAACGUACUGUGACGAAAGUCACGGUACG [JL TOV1 3.22] (Eterna round: R97, puzzle: Sensor, turn-off variant 1)”, the “apparent KD of MS2 coat protein” value runs as follows: (input ligand: FMN 200 uM) 206 nM; (input ligand: none) 220 nM.

Take “UACAAUGCUUUUGUAAGGUACAUGAGGAUCACCCAUGUCUCGCAAAGGCUUGAUUAUCACGUACGCGCUUGUCUUGU [Eternabot (L1) Solution 17] (Eterna round: R97, puzzle: Sensor, turn-off variant 1)”: the “apparent KD of MS2 coat protein” value is, setting by setting: (input ligand: FMN 200 uM) 14.3 nM; (input ligand: none) 12.2 nM.

“UACACUGCAUGAGGAUCAAACAUGAGGAUCACCCAUGUAUAGCAGGCUUUUUGUACGUCUUAUAAUUAUGUAGUGUA [Electric Eye 16 - Jieux - Sensor, turn-off variant 1] (Eterna round: R97, puzzle: Sensor, turn-off variant 1)”: for the setting “input ligand: FMN 200 uM”, the “apparent KD of MS2 coat protein” value amounted to 15.9 nM.

Regarding “UACACUGCAUGAGGAUCAAACAUGAGGAUCACCCAUGUAUAGCAGGCUUUUUGUGCGUCUUAUAAUUAUGUAGUGUA [Electric Eye 18 - Jieux - Sensor, turn-off variant 1] (Eterna round: R97, puzzle: Sensor, turn-off variant 1)”, the “apparent KD of MS2 coat protein” value is, setting by setting: (input ligand: FMN 200 uM) 14.9 nM; (input ligand: none) 15.3 nM.

Turning to “UACAUACGUCGAUCGAAAGACAUGAGGAUCACCCAUGUACGAUGUCAACGUCAAAUCCAAGUAUUUUGCUCUCGUCA [Eternabot (L2) Solution 32] (Eterna round: R97, puzzle: Sensor, turn-off variant 1)”, the “apparent KD of MS2 coat protein” value (input ligand: FMN 200 uM) was found to be 15.6 nM and the “apparent KD of MS2 coat protein” value (input ligand: none) stood at 16.1 nM.

Turning to “UACAUGAGGAUCACCCAUGUCUUUUCGUGUAUGGUACCCAUCUAGGAUAUCGUGUUAUUUAACCACGAGAAGGAGAGUAUCAAU [MOD5 Solution 21 by JMF] (Eterna round: R96, puzzle: Exclusion NG 3)”, the “apparent KD of MS2 coat protein” value by setting is: (input ligand: FMN 200 uM) 65.6 nM; under setting [2], 55.9 nM; (input ligand: none) 66.5 nM.

Turning to “UACAUGAGGAUCACCCAUGUUUUGUCGUGUAUGGUAUUUAUCUAGGAUAUCAAGUUAUUUAAUUAUGAGAAGGAGAAUAUUAAU [JMF's solution 34] (Eterna round: R96, puzzle: Exclusion NG 3)”, the “apparent KD of MS2 coat protein” value by setting is: (input ligand: FMN 200 uM) 32.8 nM; under setting [2], 26.6 nM; (input ligand: none) 34.5 nM.

Consider “UACAUGAGGAUCACCCAUGUUUUGUCGUGUAUGGUAUUUAUCUAGGAUAUCAAGUUGUUUAUUUAUGAGAAGGAGAAUAUUAAU [JMF's solution 27] (Eterna round: R96, puzzle: Exclusion NG 3)”, for which the “apparent KD of MS2 coat protein” value under setting [2] amounted to 28.8 nM.

For “UACAUGAGGAUCACCCAUGUUUUGUCGUGUAUGGUAUUUAUCUAGGAUAUCAAUCUAUUUAUUUAUGAGAAGGAGAAUAUUAAU [JMF's solution 13] (Eterna round: R96, puzzle: Exclusion NG 3)”, the “apparent KD of MS2 coat protein” value reads like this: (input ligand: FMN 200 uM) 39.6 nM; under setting [2], 25.7 nM; (input ligand: none) 42.3 nM.

With “UACAUGAGGAUCACCCAUGUUUUGUCGUGUAUGGUAUUUAUCUAGGAUAUCAAUUGAUUUAUUUAUGAGAAGGAGAAUAUUAAU [JMF's solution 15] (Eterna round: R96, puzzle: Exclusion NG 3)”, the “apparent KD of MS2 coat protein” value came out at 42.5 nM (input ligand: FMN 200 uM), 26.8 nM under setting [2] and 39.5 nM (input ligand: none).

Turning to “UACAUGAGGAUCACCCAUGUUUUGUCGUGUAUGGUAUUUAUCUAGGAUAUCAAUUUAGUCAUUUAUGAGAAGGAGAAUAUUAAU [JMF's solution 74] (Eterna round: R96, puzzle: Exclusion NG 3)”, the “apparent KD of MS2 coat protein” value by setting is: (input ligand: FMN 200 uM) 35.5 nM; under setting [2], 28.6 nM; (input ligand: none) 38.4 nM.

As for “UACAUGAGGAUCACCCAUGUUUUGUCGUGUAUGGUAUUUAUCUAGGAUAUCAAUUUGUUUAAUUAUGAGAAGGAGAAUAUUAAU [JMF's solution 70] (Eterna round: R96, puzzle: Exclusion NG 3)”, the “apparent KD of MS2 coat protein” value turned out to be 34.3 nM (input ligand: FMN 200 uM), 25.8 nM under setting [2] and 35.6 nM (input ligand: none).

In the case of “UACAUGAGGAUCACCCAUGUUUUGUCGUGUAUGGUAUUUAUCUAGGAUAUCAUUCUAUUUAGUUAUGAGAAGGAGAAUAUUAAU [JMF's solution 84] (Eterna round: R96, puzzle: Exclusion NG 3)”, the “apparent KD of MS2 coat protein” value under setting [2] came to 21.1 nM.

In the case of “UACAUGAGGAUCACCCAUGUUUUGUCGUGUAUGGUAUUUAUCUAGGAUAUCAUUUUAUUAAGUUAUGAGAAGGAGAAUAUUAAU [JMF's solution 90] (Eterna round: R96, puzzle: Exclusion NG 3)”, the “apparent KD of MS2 coat protein” value is, setting by setting: (input ligand: FMN 200 uM) 34.8 nM; under setting [2], 24.9 nM; (input ligand: none) 32.3 nM.

In the case of “UACAUGAGGAUCACCCAUGUUUUGUCGUGUAUGGUAUUUAUCUAGGAUAUCAUUUUAUUGAGUUAUGAGAAGGAGAAUAUUAAU [JMF's solution 91] (Eterna round: R96, puzzle: Exclusion NG 3)”, the “apparent KD of MS2 coat protein” value came to 39.8 nM (input ligand: FMN 200 uM), 28.5 nM under setting [2] and 32.3 nM (input ligand: none).

Regarding “UACAUGUGAGGAUAUGUACGAAGCCCGGCUGGGCCUCGCAGGCAGAAGGCACAUGAGGAUCACCCAUGUGACCG [Enanvezave] (Eterna round: R96, puzzle: Exclusion 4)”, the “apparent KD of MS2 coat protein” value by setting is: (input ligand: FMN 200 uM) 82.6 nM; under setting [2], 13.1 nM; (input ligand: none) 17.3 nM.

In the case of “UACCGGCGGACCGAGGCUUUUUGCUCGUCUUGUACUACAACAUGAGGAUCACCCAUGUGGUGGUGGUCCGUUGUAGU [JL ViennaUCT Bitein mod 6] (puzzle: Sensor v3, turn-off variant 2)”, the “apparent KD of MS2 coat protein” value under setting [3] is 18.9 nM, the “apparent KD of MS2 coat protein” value under setting [1] was determined as 8.16 nM and the “apparent KD of MS2 coat protein” value under setting [4] is 25.4 nM.

In the case of “UACGAACUAGGAUAUGCAAAGGGCUCGCUUUCCUUCGAUAAACUUGAGGAUCACCCAAGUAGAAGGAGUUUGUA [Mod 39 - Jieux - Exclusion 2] (Eterna round: R97, puzzle: Exclusion 2)”, the “apparent KD of MS2 coat protein” value came to 30.2 nM (input ligand: FMN 200 uM) and 11.4 nM (input ligand: none).

As for “UACUGGACAGGAUAUGUUCUUGAGCACUUGAGGAUCACCCAAGUCAUCAAGAACUCAGGCACAGAAGGGUUUAUGG [salish99_ex5_r4_006] (Eterna round: R97, puzzle: Exclusion 5)”, the “apparent KD of MS2 coat protein” value (input ligand: FMN 200 uM) is 25.5 nM and the “apparent KD of MS2 coat protein” value (input ligand: none) was found to be 14.8 nM.

Turning to “UACUUCUGAGGAUAUACAUAGAUUUACAUGAGGAUCACCCAUGUUCCUCUUUGUAUAAAUGUAGAAGGCAGAAGAU [Mat - Exclusion 5 - JL Mod - D74] (Eterna round: R97, puzzle: Exclusion 5)”, the “apparent KD of MS2 coat protein” value was determined as 95.6 nM (input ligand: FMN 200 uM) and 231 nM (input ligand: none).

For “UAGAGAGAUAAGGAUAUCUAUUAAAUUGUGCGUAGAGAAGGUAUCACAUGAGGAUCACCCAUGUGGUCUAAUAA [Eternabot (L1) Solution 88] (Eterna round: R97, puzzle: Exclusion 6)”, the “apparent KD of MS2 coat protein” value amounted to 29.7 nM (input ligand: FMN 200 uM) and 24.1 nM (input ligand: none).

For the sequence “UAGAUGGGAGGAUAUACGUAGAUACAGAUUCAUGUAGUGCUACAUGAGGAUCACCCAUGUAGAAGGCCCGUCUU [JL-ex2-2.19 Mayanne mod] (puzzle: Exclusion 2)”, under setting [1], the “apparent KD of MS2 coat protein” value worked out at 35.2 nM.

Consider “UAGAUGGGAGGAUAUACGUAGUUGCAGGUUCGUGUGGUGCUACAUGAGGAUCACCCAUGUAGAAGGCCCGUCUU [JL-ex2-2.30 Mayanne mod] (puzzle: Exclusion 2)”, for which the “apparent KD of MS2 coat protein” value under setting [1] is 13.3 nM.

In the case of “UAGAUGGGAGGAUAUGCGUAGAUGCAGGUUCGUGUGGUGCUACAUGAGGAUCACCCAUGUAGAAGGCCCGUCUU [Mod 7 R3 JL-ex2-2.29 - Jieux - Exclusion 2] (Eterna round: R97, puzzle: Exclusion 2)”, the “apparent KD of MS2 coat protein” value amounted to 20.7 nM (input ligand: FMN 200 uM) and 17.6 nM (input ligand: none).

For the sequence “UAGCAGCGAGGAUAUACAGACAGGUCCAAUACGUGUCUUGGACUUGAGGAUCACCCAAGUAGAAGGCGCCACAG [salish99_ex2_r4_602] (Eterna round: R97, puzzle: Exclusion 2)”, the “apparent KD of MS2 coat protein” value is, setting by setting: (input ligand: FMN 200 uM) 104 nM; (input ligand: none) 62 nM.

As for “UAGCCUUUAGUUAGGAUAUGAUAUGGGAACCAUUAUCAGAAGGAACAUGAGGAUCACCCAUGUACCGACAGGGA [Eternabot (L2) Solution 9] (Eterna round: R97, puzzle: Brourd's mod of Exclusion 4)”, the “apparent KD of MS2 coat protein” value was found to be 19.9 nM (input ligand: FMN 200 uM) and 12.3 nM (input ligand: none).

In the case of “UAGGAACGAGGAUAUACACCUGCAAGUGGUGUGGGUACACCACAUGAGGAUCACCCAUGUAGAAGGCGUACCAA [Lelebi] (Eterna round: R97, puzzle: Exclusion 2)”, the “apparent KD of MS2 coat protein” value runs as follows: (input ligand: FMN 200 uM) 57.3 nM; (input ligand: none) 12.3 nM.

For “UAGGAGUCAGGAUAUGCGAGAGAUUGAAGUAAGGGAUGAGAGCAGAAGGGACAUGAGGAUCACCCAUGUAAGGA [JR_Exclu4_Sub092] (puzzle: Exclusion 4)”, the “apparent KD of MS2 coat protein” value is, setting by setting: under setting [3], 47.7 nM; under setting [1], 43.1 nM; under setting [4], 52 nM.
